{
  "source": "paper PMC4499191",
  "key": {"[1]": {"biological_target": "Nck1 (Nck1-GFP, GST-Nck1 constructs) SH2 domain (UniProt P16333)", "assay": "GST-Nck SH2 pull-down from lysate", "settings": "reference: wild type"}, "GST-Nck SH2, P16333": {"biological_target": "T1, GST-Nck SH2, P16333", "T1 chain": "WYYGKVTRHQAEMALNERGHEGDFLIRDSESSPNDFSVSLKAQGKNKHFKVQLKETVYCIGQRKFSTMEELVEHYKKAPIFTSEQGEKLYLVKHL", "assay": "GST pull-down, anti-HA immunoblot quantified by ImageJ", "settings": "chain shown with the change; 293T cells transiently transfected with Lck and HA-tagged TSAd constructs; lane 7"}},
  "data": [
    {"molecule": "TSAd (T cell specific adaptor protein) (from UniProt Q9NP31) Y280F", "values": [
      {"measurement": "binding against the reference", "setting": "[1]; sites Y280", "value": "weaker"}
    ]},
    {"molecule": "TSAd (T cell specific adaptor protein) (from UniProt Q9NP31) Y280,305F", "values": [
      {"measurement": "binding against the reference", "setting": "[1]; sites Y280,Y305", "value": "lost"}
    ]},
    {"molecule": "HA-tagged TSAd WT co-expressed with Lck in 293T cells (tyrosine phosphorylated), Q9NP31-1 Y280F; Y290F; Y305F (protein) MEFPLAQICPQGSHEAPIPTFSTFQITDMTRRSCQNLGYTAASPQAPEAASNTGNAERAEEVPGEGSLFLQAETRAWFQKTQAHWLLQHGAAPAWFHGFITRREAERLLEPKPQGCYLVRFSESAVTFVLTYRSRTCCRHFLLAQLRDGRHVVLGEDSAHARLQDLLLHYTAHPLSPYGETLTEPLARQTPEPAGLSLRTEESNFGSKSQDPNPQYSPIIKQGQAPVPMQKEGAGEKEPSQLLRPKPPIPAKPQLPPEVYTIPVPRHRPAPRPKPSNPIFNEPDEPIAFFAMGRGSPGEAPSNIFVEVEDEGLPATLGHPVLRKSWSRPVPGGQNTGGSQLHSENSVIGQGPPLPHQPPPAWRHTLPHNLSRQVLQDRGQAWLPLGPPQ", "values": [
      {"measurement": "ratio to parent", "setting": "GST-Nck SH2, P16333", "value": -0}
    ]}
  ]
}
